Common to all, as to assay type: cell-based, human
Data set [1] deals with Gaussia Luciferase (gLuc) transcripts in HEK293 cells. The data set can be described thus: Mutual inhibition CasRx / gLuc transcripts with no, one or four DR (Example 13). Here is the method: In order to confirm the mechanism of inhibition mediated by the output species “Z” on the repressor species “Y” in genetic circuits according to preferred embodiments of the invention, HEK293 cells were co-transfected with CasRx endoribonuclease (species Y) and Gaussia Luciferase (gLuc) transcripts, the latter bearing in the 3′UTR either no Direct Repeat (DR), one DR, or four tandem DR motifs (4×DRs). The hypothesis tested was that upon CasRx binding, only one DR motifs would effectively contribute to transcript cleavage and subsequent degradation. Therefore, in transcripts bearing multiple DR motifs, the remaining DR motifs, not contributing to transcript cleavage, would act as decoys, sequestering active CasRx from the unbound pool. As a result, the CasRx repression efficacy on gLuc expression should decrease.
The luciferase emission of each sample was measured to quantify the expression of the gLuc at increasing amounts of co-transfected plasmid encoding the CasRx. […] (FIG. 25). Increasing the amount of DR copies in the 3′UTR thus enhances the “sponge” effect, inhibiting the cleavage efficacy of CasRx.

The test system of data set [2] is Gaussia luciferase transcript harboring a Direct Repeat in its 3′UTR, HEK293T cells. Nature of the data set: CasRx repression of Gaussia luciferase reporter with or without Direct Repeat (Example 2). The protocol: Luciferase assay. The cells were collected 48 hours after transfection and lysed with 25 μL of 5×Passive Lysis Buffer ([…]) diluted in water. Firefly Luciferase and Renilla Luciferase expression were measured using the Dual Luciferase Assay (Promega) on a Glomax Explorer plate reader (Promega). Firefly Luciferase Arbitrary Units (fLuc [A.U.]) were calculated by normalizing each sample's Firefly Luciferase activity to the constitutive Renilla activity detected in the same sample. Relative fLuc [A.U.] values have been calculated by dividing each sample's Firefly Luciferase Arbitrary Units by the Firefly Luciferase Arbitrary Units of the sample with no Doxycycline induction, in the case of Doxycycline dose-response curves. […] Luciferase activity was measured using Pierce™ Gaussia-Firefly Luciferase Dual Assay Kit (ThermoFisher Scientific) according to the manufacturer's instructions.
The findings of Example 1 were further confirmed by transfecting HEK293T cells with an increasing molar ratio of a plasmid encoding a Gaussia luciferase reporter gene, with or without Direct Repeats in its 3′UTR and a plasmid encoding the CasRx endoribonuclease. […] At least, three biological replicates were analyzed for each condition. Relative gLuc A.U. is calculated as the ratio between the gLuc A.U. values obtained transfecting the CasRx against the one which wasn't; this last corresponds to 1 gLuc A.U.
A general note: In a reporter assay the amount or activity of a reporter protein is the signal.

The test system of data set [3] is mCherry expression in HEK293T cells. The data set can be described thus: pCMV/TO repression by rtTA-VPR, mCherry positive cells by flow cytometry (Example 1). To be noted: presence of doxycycline (1000 ng/ml), rtTA-VPR co-transfected. Here is the method:
Flow Cytometry. Cells were collected 48 hours after transfection, washed and resuspended with PBS (Euroclone). Flow Cytometry analysis were carried out using an Accuri C6 (BD Biosciences), analyzing 10000 cells for each sample. A 488-nm laser with a 670 nm LP filter were used to excite and detect mCherry fluorescence.
HEK293T cells were transfected with a plasmid encoding the pCMV/TO promoter driving the expression of the fluorescent protein mCherry, and with a plasmid encoding the rtTA-VPR transcription factor driven by the strong constitutive pCMV promoter. A condition treated in the same way but without rtTA-VPR transfection was used as a negative control to account for any doxycycline treatment bias on mCherry expression. The percentage of mCherry positive cells was quantified through flow cytometry analysis in the absence and presence (1000 ng/ml) of doxycycline. The results of this experiment are shown in FIG. 3, where it can be appreciated that pCMV/TO efficiently represses the expression of the mCherry almost 25 times at the transcriptional level in the presence of doxycycline. pCMV/TO is efficiently repressed by the rtTA-VPR in the presence of doxycycline. Percentual mean values of at least three biological replicates are shown. Error bars indicate standard error.
(Flow cytometry measures light scatter and fluorescence of single cells or particles in a stream.)

The test system of data set [4] is Firefly Luciferase driven by CMV/2B promoter in HEK293T cells. Nature of the data set: CMV/2B promoter repression by VPR-dCas9-N8 and gRNA_B, Luc assay (Example 12). To be noted: VPR-dCas9-N8 with gRNA_B vs scramble gRNA_AB. The protocol:
Luciferase assay. The cells were collected 48 hours after transfection and lysed with 25 μL of 5×Passive Lysis Buffer ([…]) diluted in water. Firefly Luciferase and Renilla Luciferase expression were measured using the Dual Luciferase Assay (Promega) on a Glomax Explorer plate reader (Promega). Firefly Luciferase Arbitrary Units (fLuc [A.U.]) were calculated by normalizing each sample's Firefly Luciferase activity to the constitutive Renilla activity detected in the same sample. Relative fLuc [A.U.] values have been calculated by dividing each sample's Firefly Luciferase Arbitrary Units by the Firefly Luciferase Arbitrary Units of the sample with no Doxycycline induction, in the case of Doxycycline dose-response curves. In the case of Shield1 treatment, Relative fLuc [A.U.] values have been obtained by dividing each sample's Firefly Luciferase Arbitrary Units by the Firefly Luciferase Arbitrary Units of the sample treated with the maximum dose of Shield1 used, 1000 nM. Regarding experiments comprising Gaussia Luciferase and RedFireFly Luciferase, cells expressing those luciferases were harvested 48 h after transfection. Cells were disrupted with 100 μL/well of 1×Cell Lysis buffer and shaken for 15 min. Luciferase activity was measured using Pierce™ Gaussia-Firefly Luciferase Dual Assay Kit (ThermoFisher Scientific) according to the manufacturer's instructions. […]

Data on three molecules can be found in patent US20260022396A1, “GENETIC CIRCUITS” (FONDAZIONE TELETHON ETS, priority 2022, published 2026).

B1: CasRx: CRISPR-Cas RNase derived from Ruminococcus flavefaciens, SEQ ID NO: 2 (protein)
chain: IEKKKSFAKGMGVKSTLVSGSKVYMTTFAEGSDARLEKIVEGDSIRSVNEGEAFSAEMADKNAGYKIGNAKFSHPKGYAVVANNPLYTGPVQQDMLGLKETLEKRYFGESADGNDNICIQVIHNILDIEKILAEYITNAAYAVNNISGLDKDIIGFGKFSTVYTYDEFKDPEHHRAAFNNNDKLINAIKAQYDEFDNFLDNPRLGYFGQAFFSKEGRNYIINYGNECYDILALLSGLRHWVVHNNEEESRISRTWLYNLDKNLDNEYISTLNYLYDRITNELTNSFSKNSAANVNYIAETLGINPAEFAEQYFRFSIMKEQKNLGFNITKLREVMLDRKDMSEIRKNHKVFDSIRTKVYTMMDFVIYRYYIEEDAKVAAANKSLPDNEKSLSEKDIFVINLRGSFNDDQKDALYYDEANRIWRKLENIMHNIKEFRGNKTREYKKKDAPRLPRILPAGRDVSAFSKLMYALTMFLDGKEINDLLTTLINKFDNIQSFLKVMPLIGVNAKFVEEYAFFKDSAKIADELRLIKSFARMGEPIADARRAMYIDAIRILGTNLSYDELKALADTFSLDENGNKLKKGKHGMRNFIINNVISNKRFHYLIRYGDPAHLHEIAKNEAVVKFVLGRIADIQKKQGQNGKNQIDRYYETCIGKDKGKSVSEKVDALTKIITGMNYDQFDKKRSVIEDTGRENAEREKFKKIISLYLTVIYHILKNIVNINARYVIGFHCVERDAQLYKEKGYDINLKKLEEKGFSSVTKLCAGIDETAPDKRKDVEKEMAERAKESIDSLESANPKLYANYIKYSDEKKAEEFTRQINREKAKTALNAYLRNTKWNVIIREDLLRIDNKTCTLFRNKAVHLEVARYVHAYINDIAEVNSYFQLYHYIMQRIIMNERYEKSSGKVSEYFDAVNDEKKYNDRLLKLLCVPFGYCIPRFKNLSIEALFDRNEAAKFDKEKKKVSGNS
In the case of B1, the “decrease of gLuc expression” value in data set [1] (transcript having one DR, increasing amount of co-transfected CasRx) is roughly 2 log. For the same molecule, the luciferase values result in data set [1] (transcript with 4×DRs, presence of CasRx) is recorded as “higher luciferase values in the presence of CasRx compared to a single DR”. For the same molecule, in data set [2] (10 times molar excess of CasRx), the “post-transcriptional inhibition of luciferase expression” value is roughly 200 folds. For the same molecule, in data set [2] (equimolar amount of plasmid encoding CasRx, relative to no CasRx), the “expression of Gaussia luciferase with DR in 3′UTR” value was found to be 5%.

B2: pCMV/TO: modified CMV promoter bearing two Tetracycline Operon (TO) sequences, SEQ ID NO: 8 (nucleic acid)
DNA: CGTTACATAACTTACGGTAAATGGCCCGCCTGGCTGACCGCCCAACGACCCCCGCCCATTGACGTCAATAATGACGTATGTTCCCATAGTAACGCCAATAGGGACTTTCCATTGACGTCAATGGGTGGAGTATTTACGGTAAACTGCCCACTTGGCAGTACATCAAGTGTATCATATGCCAAGTACGCCCCCTATTGACGTCAATGACGGTAAATGGCCCGCCTGGCATTATGCCCAGTACATGACCTTATGGGACTTTCCTACTTGGCAGTACATCTACGTATTAGTCATCGCTATTACCATGGTGATGCGGTTTTGGCAGTACATCAATGGGCGTGGATAGCGGTTTGACTCACGGGGATTTCCAAGTCTCCACCCCATTGACGTCAATGGGAGTTTGTTTTGGCACCAAAATCAACGGGACTTTCCAAAATGTCGTAACAACTCCGCCCCATTGACGCAAATGGGCGGTAGGCGTGTACGGTGGGAGGTCTATATAAGCAGAGCTCTCCCTATCAGTGATAGAGATCTCCCTATCAGTGATAGAGA
For the molecule B2, the “repression of mCherry expression” value in data set [3] is roughly 25 times.

B3: CMV/2B: CMV promoter with gRNA_B binding sites downstream of the TATA box, repressed by VPR-dCas9-N8, SEQ ID NO: 48 (nucleic acid)
DNA: CGTTACATAACTTACGGTAAATGGCCCGCCTGGCTGACCGCCCAACGACCCCCGCCCATTGACGTCAATAATGACGTATGTTCCCATAGTAACGCCAATAGGGACTTTCCATTGACGTCAATGGGTGGAGTATTTACGGTAAACTGCCCACTTGGCAGTACATCAAGTGTATCATATGCCAAGTACGCCCCCTATTGACGTCAATGACGGTAAATGGCCCGCCTGGCATTATGCCCAGTACATGACCTTATGGGACTTTCCTACTTGGCAGTACATCTACGTATTAGTCATCGCTATTACCATGGTGATGCGGTTTTGGCAGTACATCAATGGGCGTGGATAGCGGTTTGACTCACGGGGATTTCCAAGTCTCCACCCCATTGACGTCAATGGGAGTTTGTTTTGGCACCAAAATCAACGGGACTTTCCAAAATGTCGTAACAACTCCGCCCCATTGACGCAAATGGGCGGTAGGCGTGTACGGTGGGAGGTCTATATAAGCAGAGCTGCCGTCTTCCGTTTCCACATCTTCACGGATACCAAGGTGGCACCGGTTTGATTGCACAGCCCGTCTTCCGTTTCCACATCTTCACGG
As for B3, the “percentage of repression of the CMV/2B” value in data set [4] is reported as “around 60%”.
